According to patent US20060263828A1:

Target: Flag-β2AR (UniProt P07550)
Test: cell-based or functional assay

β2AR degradation after 24 hrs of isoproterenol treatment (125I CYP binding on whole HEK 293 cells; mock about 25%): 6 to 7%
Substance: β-arrestin2 (from UniProt P29067 1-410)
